The record followed here is patent publication US20130143953A1 (TRUSTEES OF TUFTS COLLEGE, published 2013).

The target in assay [1] is human membrane attack complex (C5b-9) formed from normal human serum on mouse cells (human) (UniProt P01031). Put plainly: cell-based or functional assay.
The target in assay [2] is human membrane attack complex (C5b-9) formed from normal human serum on mouse cells (human, UniProt P01031 752-1676; P13671 22-934; P10643 23-843; P07357 31-584; P07358 55-591; …). Put plainly: cell-based or functional assay.

B1: human CD59, GPI-anchored membrane form expressed from the AdCAGCD59 vector (protein, UniProt P13987 26-102, looked up)
chain: LQCYNCPNPTADCKTAVNCSSDFDACLITKAGLQVYNKCWKFEHCNFNDVTTRLRENELTYYCCKKDLCNFNEQLEN
modifications: glycosyl phosphatidyl inositol (GPI) anchor at asparagine 77 of the mature protein; N-glycosylated
In assay [1], B1 yielded a complement mediated cell lysis (PI uptake, FACS; hepa-1c1c7 cells, 1000 vp/cell AdCAGCD59, 1% NHS) of 12.3%; a fold reduction of complement mediated cell lysis (PI uptake, FACS; hepa-1c1c7 cells, 1000 vp/cell AdCAGCD59, 1% NHS) of 8 fold; an inhibition of cell lysis at 250 vp/cell AdCAGCD59 (hepa-1c1c7 cells, NHS) above 50%; an inhibition of cell lysis at 500 vp/cell AdCAGCD59 (hepa-1c1c7 cells, NHS) above 70%. In assay [1], this molecule came in with a reduction in MAC immunofluorescence intensity on mouse corneal endothelium (ex vivo, 50% NHS, 20 minutes) of 86%; a reduction in MAC immunofluorescence on mouse eyecups, 7.5 minutes NHS of 68%; a reduction in MAC immunofluorescence on mouse eyecups, 15 minutes NHS of 56%; a reduction in mean MAC immunofluorescence intensity on mouse eyecup RPE at the area of GFP expression of 55%.

B2: membrane-independent (soluble) human CD59 lacking the C-terminal 26 amino acids, expressed from AdCAGsCD59 or AAVCAGsCD59 (other)
chain: LQCYNCPNPTADCKTAVNCSSDFDACLITKAGLQVYNKCWKFEHCNFNDVTTRLRENELTYYCCKKDLCNFNEQLEN
modifications: N-glycosylated forms (14-18 kDa)
With B2, the “protection against cell lysis relative to AdCAGGFP-conditioned media with NHS (Hepa-1c1c7 cells)” value in assay [2] was 34.1%.
